B1: CPEB3 Ribozyme (parent)
chain: GGGGGCCACAGCAGAAGCGUUCACGUCGCGGCCCCUGUCAGAUUCUGGUGAAUCUGCGAAUUCUGCUGU

Variants of: B1
Assay: self-cleavage, relative activity (ratio to wild type); higher = more cleavage; co-transcriptional

Row | Variant | self-cleavage
1 | GGGGGCCACAGCAGCAGCGUUCACGUCGCGGCCCCUGUCAGAUUCUGGUGAAGCUGCGAAUUCUGCUGU [A15C U53G] | 0.558
2 | GGGGGCCACAGCAGCAGCGUUCACGUCGCGGCCCCUGUCAGAGUCUGGUGAAUCUGCGAAUUCUGCUGU [A15C U43G] | 0.491
3 | GGGGGCCACAGCAGCAGCGUUCACGUCGCGGCCCCUGUCAGAAUCUGGUGAAUCUGCGAAUUCUGCUGU [A15C U43A] | 0.459
4 | GGGGGCCACAGCAGCAGCGUUCACGUCGCGGCCCCUGUCAGAUUCUGGUGAAUCGGCGAAUUCUGCUGU [A15C U55G] | 0.32
5 | GGGGGCCACAGCAGGCGCGUUCACGUCGCGGCCCCUGUCAGAUUCUGGUGAAUCUGCGAAUUCUGCUGU [A15G A16C] | 0.145
6 | GGGGGCCACAGCAGGAGCGUUCACGUCGCGGCCCCUGUCAGAUUCUGGUGUAUCUGCGAAUUCUGCUGU [A15G A51U] | 0.963
7 | GGGGGCCACAGCAGGAGCGUUCACGUCGCGGCCCCUGUCAGAUUCUGGUGGAUCUGCGAAUUCUGCUGU [A15G A51G] | 1.05
8 | GGGGGCCACAGCAGCAGCGUUCACGUCGCGGCCCCUGUCAGAUUUUGGUGAAUCUGCGAAUUCUGCUGU [A15C C45U] | 0.949
9 | GGGGGCCACAGCAGCAGCGUUCACGUCGCGGCCCCUGUCAGAUUAUGGUGAAUCUGCGAAUUCUGCUGU [A15C C45A] | 0.772
10 | GGGGGCCACAGCAGCAGCGUUCACGUCGCGGCCCCUGUCAGAUUGUGGUGAAUCUGCGAAUUCUGCUGU [A15C C45G] | 0.865
11 | GGGGGCCACAGCAGCAGCGUUCACGUCGCGGCCCCUGUCAGAUUCUGGUGAAUCUCCGAAUUCUGCUGU [A15C G56C] | 0.446
12 | GGGGGCCACAGCAGGAGCGUUCACGUCGCGGCCCCUGUCAGAUUCUGGUGAAUCUGCGCAUUCUGCUGU [A15G A59C] | 0.649
13 | GGGGGCCACAGCAGGAGCGUUCACGUCGCGGCCCCUGUCAGAUUCUGGUGAAUCUGUGAAUUCUGCUGU [A15G C57U] | 0.294
14 | GGGGGCCACAGCAGCAGCGUUCACGUCGCGGUCCCUGUCAGAUUCUGGUGAAUCUGCGAAUUCUGCUGU [A15C C32U] | 0.853
15 | GGGGGCCACAGCAGCAGCGUUCACGUCGCGGCUCCUGUCAGAUUCUGGUGAAUCUGCGAAUUCUGCUGU [A15C C33U] | 0.911
16 | GGGGGCCACAGCAGCAGCGUUCACGGCGCGGCCCCUGUCAGAUUCUGGUGAAUCUGCGAAUUCUGCUGU [A15C U26G] | 0.586
17 | GGGGGCCACAGCAGGAGCGUUCACGUCGCGGCCCCUGUGAGAUUCUGGUGAAUCUGCGAAUUCUGCUGU [A15G C39G] | 0.928
18 | GGGGGCCACAGCAGGAGCGUUCACGUCGCGGCCCCUGUUAGAUUCUGGUGAAUCUGCGAAUUCUGCUGU [A15G C39U] | 0.893
19 | GGGGGCCACAGCAGGAGCGUUCAUGUCGCGGCCCCUGUCAGAUUCUGGUGAAUCUGCGAAUUCUGCUGU [A15G C24U] | 0.87
20 | GGGGGCCACAGCAGGAGCGUUCAGGUCGCGGCCCCUGUCAGAUUCUGGUGAAUCUGCGAAUUCUGCUGU [A15G C24G] | 0.405

Row | Variant | self-cleavage
21 | GGGGGCCACAGCAGCAGCUUUCACGUCGCGGCCCCUGUCAGAUUCUGGUGAAUCUGCGAAUUCUGCUGU [A15C G19U] | 0.164
22 | GGGGGCCACAGCAGCAGCAUUCACGUCGCGGCCCCUGUCAGAUUCUGGUGAAUCUGCGAAUUCUGCUGU [A15C G19A] | 0.185
23 | GGGGGCCACAGCAGCAGCCUUCACGUCGCGGCCCCUGUCAGAUUCUGGUGAAUCUGCGAAUUCUGCUGU [A15C G19C] | 0.214
24 | GGGGGCCACAGCAGCAGCGUUCACGUCGCGGCCCCUGUCAGAUUCUCGUGAAUCUGCGAAUUCUGCUGU [A15C G47C] | 0.894
25 | GGGGGCCACAGCAGCAGCGUUCACGUCGCGGCCCCUGUCAGAUUCUAGUGAAUCUGCGAAUUCUGCUGU [A15C G47A] | 0.889
26 | GGGGGCCACAGCAGCAGCGUUCACGUCGCGUCCCCUGUCAGAUUCUGGUGAAUCUGCGAAUUCUGCUGU [A15C G31U] | 0.241
27 | GGGGGCCACAGCAGGAGCGUUCACGUCGCGGCCCCUGUCAGUUUCUGGUGAAUCUGCGAAUUCUGCUGU [A15G A42U] | 0.946
28 | GGGGGCCACAGCAGCAGCGUUCACGUCGAGGCCCCUGUCAGAUUCUGGUGAAUCUGCGAAUUCUGCUGU [A15C C29A] | 0.297
29 | GGGGGCCACAGCAGCAGCGUUCACGUCGCGGCCCCUGUCAGAUUCUGGAGAAUCUGCGAAUUCUGCUGU [A15C U49A] | 0.889
30 | GGGGGCCACAGCAGGAGCGUUCACGUCGCGGCCCCUCUCAGAUUCUGGUGAAUCUGCGAAUUCUGCUGU [A15G G37C] | 0.239
31 | GGGGGCCACAGCAGGAGCGUUCACGUCGCGGCCCCUGUCAGAUUCUGGUGAAUCUGCGAUUUCUGCUGU [A15G A60U] | 0.579
32 | GGGGGCCACAGCAGGAGCGUUCACGUCGCGGGCCCUGUCAGAUUCUGGUGAAUCUGCGAAUUCUGCUGU [A15G C32G] | 0.415
33 | GGGGGCCACAGCAGGAGCGUUCACGUCGCGGCCCCUGUCAAAUUCUGGUGAAUCUGCGAAUUCUGCUGU [A15G G41A] | 0.732
34 | GGGGGCCACAGCAGGAGCGUUCACGUCGCGGCCCCUGUCACAUUCUGGUGAAUCUGCGAAUUCUGCUGU [A15G G41C] | 0.777
35 | GGGGGCCACAGCAGCAGCGUUCACGUCGCGGCCCCUGUCAGAUUCUGGUGAAUCUGCGAAUUCUGCAGU [A15C U67A] | 0.916
36 | GGGGGCCACAGCAGCAGCGUUCACGUCGCGGCCCCUGUCAGAUUCUGGUGAAUCUGCGAAUUCUGCCGU [A15C U67C] | 0.888
37 | GGGGGCCACAGCAGCAGCGUUCACGUCGCGGCCCCUGUCAGAUUCUGGUGAAUCUGCGAAUUCUUCUGU [A15C G65U] | 0.411
38 | GGGGGCCACAGCAGCAGCGUUCACGUCGCGGCCCCUGUCAGAUUCUGGUGAAUCUGCGAAUUCUCCUGU [A15C G65C] | 0.277
39 | GGGGGCCACAGCAGGAGCGUUCACGUCGCGGCCCCUGUCAGAUUCUCGUGAAUCUGCGAAUUCUGCUGU [A15G G47C] | 1.05
